Values joined by “and” are separate entries in the source; they are usually repeats but may differ in a detail not shown here. Equal entries are not always repeated. Where two headings read alike, the source gives them in different places.
How the values were obtained:
[1] = molecular target: myeloperoxidase (Homo sapiens) (UniProt P05164); conditions: cited from earlier work
[2] = molecular target: Myeloperoxidase (native) (Homo sapiens) (UniProt P05164); experiment: SPR; conditions: cited from earlier work
[3] = molecular target: myeloperoxidase (Homo sapiens) (UniProt P05164); experiment: SPR; conditions: cited from earlier work
[4] = molecular target: myeloperoxidase (Homo sapiens) (UniProt P05164); conditions: cited from earlier work; remark: listed apart in the source
[5] = molecular target: mature dimeric human leukocyte myeloperoxidase (human) (UniProt P05164); experiment: ITC; 10 μM MPO in the cell, 150 μM SPIN variant as titrant, 19 injections of 3 μl; 50 mM phosphate buffer pH 7.4 or pH 5; one-site binding model
[6] = molecular target: biotinylated native human leukocyte myeloperoxidase (human) (UniProt P05164); experiment: SPR; Biacore T200; biotinylated native MPO reversibly immobilised on a CAP chip (Biotin CAPture kit) to 500 RU; SPIN variants injected, 2-64 nM (legend: 32-2 nM), single cycle kinetics; RT; PBS, 0.05% Tween 20, 0.1% BSA; two-state model for SPIN-aureus, 1:1 model for SPIN-truncated
[7] = molecular target: mature dimeric human leukocyte myeloperoxidase (human) (UniProt P05164)
[8] = molecular target: mature dimeric human leukocyte myeloperoxidase (human) (UniProt P05164); remark: listed apart in the source

SPIN-aureus (from UniProt A0A0H3K703)
Kd [1]: 10 nM | Kd [2]: 15.9 nM and 9.3 nM | Kd [3]: 11.8 nM

SPIN-truncated CTD (from UniProt A0A0H3K703)
Kd [2]: 29.8 nM | Kd [3]: 35.1 nM

SPIN-truncated C-terminal domain (from UniProt A0A0H3K703)
Kd [4]: 10 nM

B1: SPIN-truncated (domain or fragment)
chain: LEHELSYIDVLLDKNADQATKDNLRSYFADKGLHSIKDIINKAKQDGFDVSKYEHVK
Kd [5]: 5.9 nM | dH [5]: -17.4 kcal/mol | Kd [6]: 21 nM | koff [6]: 0.016 s⁻¹ | kon [6]: 110000 M⁻¹ s⁻¹

B2: SPIN-aureus (Staphylococcal Peroxidase Inhibitor from Staphylococcus aureus) (natural protein)
chain: SQNGLVLHDDANFLEHELSYIDVLLDKNADQATKDNLRSYFADKGLHSIKDIINKAKQDGFDVSKYEHVK
shift of the Tm of MPO by DSC, MPO with SPIN-aureus against MPO alone, pH 5 [7]: 5 °C | shift of the Tm of MPO by DSC, MPO with SPIN-aureus against MPO alone, pH 7.4 [7]: 1.5 °C | half maximal inhibition time IT50 of the bromination activity of MPO, first phase (incubation 0-5 min, ∼80% total inhibition) [8]: 2.4 s | half maximal inhibition time IT50 of the bromination activity of MPO, second phase (incubation 5-120 min) [8]: 24 min | inhibition of the bromination activity of MPO (MCD assay, pH 5) after preincubation with SPIN-aureus for 0 to 120 min [8]: 99.5% | Kd [6]: 0.005 nM | koff1 (two-state model, first step) [6]: 0.005 s⁻¹ | koff2 (two-state model, second step) [6]: 3.5e-06 s⁻¹ | kon1 (two-state model, first step) [6]: 590000 M⁻¹ s⁻¹
